Laboratory results published in patent US20120178908A1 (Novo Nordisk, published 2012).

T1: TLT-1 18-188 relipidated in 20:80 PS:PC vesicles (human, UniProt Q86YW5 18-188)
T1 sequence: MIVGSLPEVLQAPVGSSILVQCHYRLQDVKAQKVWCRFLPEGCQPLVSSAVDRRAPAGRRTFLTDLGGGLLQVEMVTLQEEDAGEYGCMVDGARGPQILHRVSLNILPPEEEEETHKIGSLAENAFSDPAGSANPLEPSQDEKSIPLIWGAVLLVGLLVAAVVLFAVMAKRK

T2: TLT-1 receptor on the surface of activated human platelets (human, UniProt Q86YW5 16-311)
T2 sequence: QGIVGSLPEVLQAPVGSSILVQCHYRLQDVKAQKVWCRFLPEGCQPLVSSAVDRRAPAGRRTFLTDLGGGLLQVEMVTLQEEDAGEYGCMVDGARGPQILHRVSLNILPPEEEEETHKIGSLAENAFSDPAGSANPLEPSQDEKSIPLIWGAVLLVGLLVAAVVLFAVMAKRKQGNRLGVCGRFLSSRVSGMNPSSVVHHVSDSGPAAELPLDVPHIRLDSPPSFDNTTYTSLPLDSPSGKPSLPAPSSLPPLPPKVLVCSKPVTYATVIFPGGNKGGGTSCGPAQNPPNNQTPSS


Legend:
[1] = target: T1, TLT-1 18-188 relipidated in 20:80 PS:PC …; test: cell-based or functional assay
[2] = target: T2, TLT-1 receptor on the surface of …; test: cell-based or functional assay

| FVII-mediated FXa generation % Activity lipidated TLT-1 [1] [%] | FVIIa-mediated FXa generation % Activity lipidated TLT-1 [1] [%] | FVII-mediated FXa generation % Activity activated plts (n 1) [2] [%] | FVIIa-mediated FXa generation % Activity activated plts (n 1) [2] [%] | Binder |
| --- | --- | --- | --- | --- |
| 26 | 53 | 14 | 45 | Fab 0023-VH-CH1-L4a-TF;LC-HPC4 (other) VH-CH1-linker-TF: EVRLVESGGGLVQPGGSLKLSCATSGFTFSDYFMYWIRQTPEKRLEWVAYISNGGDSSSYPDTVKGRFTISRDNAKNTLYLQMSRLKSEDTAMYYCATNKNWDDYYDMDYWGQGTSVTVSSASTKGPSVFPLAPCSRSTSESTAALGCLVKDYFPEPVTVSWNSGALTSGVHTFPAVLQSSGLYSLSSVVTVPSSSLGTKTYTCNVDHKPSNTKVDKRVESKGSGGGGSGGGGSGGGGSSGTTNTVAAYNLTWKSTNFKTILEWEPKPVNQVYTVQISTKSGDWKSKCFYTTDTECDLTDEIVKDVKQTYLARVFSYPAGNVESTGSAGEPLYENSPEFTPYLETNLGQPTIQSFEQVGTKVNVTVEDERTLVRRNNTFLSLRDVFGKDLIYTLYYWKSSSSGKKTAKTNTNEFLIDVDKGENYCFSVQAVIPSRTVNRKSTDSPVECMGQEKGEFRE light chain-HPC4: DIVVSQSPSSLAVSAGEKVTMSCKSSQSLLNSRTRKNYLAWYQQKPGQSPKLLIYWASTRESGVPDRFTGSGSGTDFTLTISSVQAEDLAVYYCKQSYNLLTFGAGTKLELKRTVAAPSVFIFPPSDEQLKSGTASVVCLLNNFYPREAKVQWKVDNALQSGNSQESVTEQDSKDSTYSLSSTLTLSKADYEKHKVYACEVTHQGLSSPVTKSFNRGECEDQVDPRLIDGK |
| 9 | 29 |  | 20 | Fab 0052-LC-L4a-TF;VH-CH1-HPC4 (other) light chain-linker-TF: DIQMTQTTSSLSASLGDRVTISCRASQDISNYLNWYQQKPDGTVKLLIFYTSRLHSGVPSRFSGSGSGTDYSLTISNLEPEDIATYYCQQDTKLPYTFGGGTKLEMKRTVAAPSVFIFPPSDEQLKSGTASVVCLLNNFYPREAKVQWKVDNALQSGNSQESVTEQDSKDSTYSLSSTLTLSKADYEKHKVYACEVTHQGLSSPVTKSFNRGECGSGGGGSGGGGSGGGGSSGTTNTVAAYNLTWKSTNFKTILEWEPKPVNQVYTVQISTKSGDWKSKCFYTTDTECDLTDEIVKDVKQTYLARVFSYPAGNVESTGSAGEPLYENSPEFTPYLETNLGQPTIQSFEQVGTKVNVTVEDERTLVRRNNTFLSLRDVFGKDLIYTLYYWKSSSSGKKTAKTNTNEFLIDVDKGENYCFSVQAVIPSRTVNRKSTDSPVECMGQEKGEFRE VH-CH1-HPC4: QVQLQQSGAEPMKPGASVKISCKATGYTFSSHWIEWIKQRPGHGLEWIGEILPGSGNTNYNEKFKGKATFTADTSSNTAYMQLSSLTSEDSAVYCCARGYYGLNYDWYFDVWGAGTTVTVSSASTKGPSVFPLAPCSRSTSESTAALGCLVKDYFPEPVTVSWNSGALTSGVHTFPAVLQSSGLYSLSSVVTVPSSSLGTKTYTCNVDHKPSNTKVDKRVESKEDQVDPRLIDGK |
| 13 | 29 | 10 | 25 | Fab 0052-VH-CH1-L4a-TF;LC-HPC4 (other) VH-CH1-linker-TF: QVQLQQSGAEPMKPGASVKISCKATGYTFSSHWIEWIKQRPGHGLEWIGEILPGSGNTNYNEKFKGKATFTADTSSNTAYMQLSSLTSEDSAVYCCARGYYGLNYDWYFDVWGAGTTVTVSSASTKGPSVFPLAPCSRSTSESTAALGCLVKDYFPEPVTVSWNSGALTSGVHTFPAVLQSSGLYSLSSVVTVPSSSLGTKTYTCNVDHKPSNTKVDKRVESKGSGGGGSGGGGSGGGGSSGTTNTVAAYNLTWKSTNFKTILEWEPKPVNQVYTVQISTKSGDWKSKCFYTTDTECDLTDEIVKDVKQTYLARVFSYPAGNVESTGSAGEPLYENSPEFTPYLETNLGQPTIQSFEQVGTKVNVTVEDERTLVRRNNTFLSLRDVFGKDLIYTLYYWKSSSSGKKTAKTNTNEFLIDVDKGENYCFSVQAVIPSRTVNRKSTDSPVECMGQEKGEFRE light chain-HPC4: DIQMTQTTSSLSASLGDRVTISCRASQDISNYLNWYQQKPDGTVKLLIFYTSRLHSGVPSRFSGSGSGTDYSLTISNLEPEDIATYYCQQDTKLPYTFGGGTKLEMKRTVAAPSVFIFPPSDEQLKSGTASVVCLLNNFYPREAKVQWKVDNALQSGNSQESVTEQDSKDSTYSLSSTLTLSKADYEKHKVYACEVTHQGLSSPVTKSFNRGECEDQVDPRLIDGK |
| 25 | 40 | 17 | 35 | Fab 0023-LC-L7-TF;VH-CH1-HPC4 (other) light chain-linker-TF: DIVVSQSPSSLAVSAGEKVTMSCKSSQSLLNSRTRKNYLAWYQQKPGQSPKLLIYWASTRESGVPDRFTGSGSGTDFTLTISSVQAEDLAVYYCKQSYNLLTFGAGTKLELKRTVAAPSVFIFPPSDEQLKSGTASVVCLLNNFYPREAKVQWKVDNALQSGNSQESVTEQDSKDSTYSLSSTLTLSKADYEKHKVYACEVTHQGLSSPVTKSFNRGECGGGGSGGGGSGGGGSGSGGGGSGGGGSGGGGSSGTTNTVAAYNLTWKSTNFKTILEWEPKPVNQVYTVQISTKSGDWKSKCFYTTDTECDLTDEIVKDVKQTYLARVFSYPAGNVESTGSAGEPLYENSPEFTPYLETNLGQPTIQSFEQVGTKVNVTVEDERTLVRRNNTFLSLRDVFGKDLIYTLYYWKSSSSGKKTAKTNTNEFLIDVDKGENYCFSVQAVIPSRTVNRKSTDSPVECMGQEKGEFRE VH-CH1-HPC4: EVRLVESGGGLVQPGGSLKLSCATSGFTFSDYFMYWIRQTPEKRLEWVAYISNGGDSSSYPDTVKGRFTISRDNAKNTLYLQMSRLKSEDTAMYYCATNKNWDDYYDMDYWGQGTSVTVSSASTKGPSVFPLAPCSRSTSESTAALGCLVKDYFPEPVTVSWNSGALTSGVHTFPAVLQSSGLYSLSSVVTVPSSSLGTKTYTCNVDHKPSNTKVDKRVESKEDQVDPRLIDGK |
| 24 | 38 | 14 | 32 | Fab 0023-LC-L9-TF;VH-CH1-HPC4 (other) light chain-linker-TF: DIVVSQSPSSLAVSAGEKVTMSCKSSQSLLNSRTRKNYLAWYQQKPGQSPKLLIYWASTRESGVPDRFTGSGSGTDFTLTISSVQAEDLAVYYCKQSYNLLTFGAGTKLELKRTVAAPSVFIFPPSDEQLKSGTASVVCLLNNFYPREAKVQWKVDNALQSGNSQESVTEQDSKDSTYSLSSTLTLSKADYEKHKVYACEVTHQGLSSPVTKSFNRGECGGGGSGGGGSGGGGSGGGGSGGGGSGSGGGGSGGGGSGGGGSSGTTNTVAAYNLTWKSTNFKTILEWEPKPVNQVYTVQISTKSGDWKSKCFYTTDTECDLTDEIVKDVKQTYLARVFSYPAGNVESTGSAGEPLYENSPEFTPYLETNLGQPTIQSFEQVGTKVNVTVEDERTLVRRNNTFLSLRDVFGKDLIYTLYYWKSSSSGKKTAKTNTNEFLIDVDKGENYCFSVQAVIPSRTVNRKSTDSPVECMGQEKGEFRE VH-CH1-HPC4: EVRLVESGGGLVQPGGSLKLSCATSGFTFSDYFMYWIRQTPEKRLEWVAYISNGGDSSSYPDTVKGRFTISRDNAKNTLYLQMSRLKSEDTAMYYCATNKNWDDYYDMDYWGQGTSVTVSSASTKGPSVFPLAPCSRSTSESTAALGCLVKDYFPEPVTVSWNSGALTSGVHTFPAVLQSSGLYSLSSVVTVPSSSLGTKTYTCNVDHKPSNTKVDKRVESKEDQVDPRLIDGK |
| 24 | 35 | 16 | 33 | Fab 0023-LC-L8-TF;VH-CH1-HPC4 (other) light chain-linker-TF: DIVVSQSPSSLAVSAGEKVTMSCKSSQSLLNSRTRKNYLAWYQQKPGQSPKLLIYWASTRESGVPDRFTGSGSGTDFTLTISSVQAEDLAVYYCKQSYNLLTFGAGTKLELKRTVAAPSVFIFPPSDEQLKSGTASVVCLLNNFYPREAKVQWKVDNALQSGNSQESVTEQDSKDSTYSLSSTLTLSKADYEKHKVYACEVTHQGLSSPVTKSFNRGECGGGGSGGGGSGGGGSGGGGSGSGGGGSGGGGSGGGGSSGTTNTVAAYNLTWKSTNFKTILEWEPKPVNQVYTVQISTKSGDWKSKCFYTTDTECDLTDEIVKDVKQTYLARVFSYPAGNVESTGSAGEPLYENSPEFTPYLETNLGQPTIQSFEQVGTKVNVTVEDERTLVRRNNTFLSLRDVFGKDLIYTLYYWKSSSSGKKTAKTNTNEFLIDVDKGENYCFSVQAVIPSRTVNRKSTDSPVECMGQEKGEFRE VH-CH1-HPC4: EVRLVESGGGLVQPGGSLKLSCATSGFTFSDYFMYWIRQTPEKRLEWVAYISNGGDSSSYPDTVKGRFTISRDNAKNTLYLQMSRLKSEDTAMYYCATNKNWDDYYDMDYWGQGTSVTVSSASTKGPSVFPLAPCSRSTSESTAALGCLVKDYFPEPVTVSWNSGALTSGVHTFPAVLQSSGLYSLSSVVTVPSSSLGTKTYTCNVDHKPSNTKVDKRVESKEDQVDPRLIDGK |
| 22 | 48 | 43 | 72 | Fab 0051-VH-CH1-L4a-TF;LC-HPC4 (other) VH-CH1-linker-TF: QVQLEQSGAELVRPGVSVKISCKGSGYTFTDYSMHWVKQSHAKSLEWIGVISTYYGDVRYNQKFKGKATMTVDKSSSTAYMALARLTSEDSAIYYCARAPMITTGAWFAYWGQGTLVTVSAASTKGPSVFPLAPCSRSTSESTAALGCLVKDYFPEPVTVSWNSGALTSGVHTFPAVLQSSGLYSLSSVVTVPSSSLGTKTYTCNVDHKPSNTKVDKRVESKGSGGGGSGGGGSGGGGSSGTTNTVAAYNLTWKSTNFKTILEWEPKPVNQVYTVQISTKSGDWKSKCFYTTDTECDLTDEIVKDVKQTYLARVFSYPAGNVESTGSAGEPLYENSPEFTPYLETNLGQPTIQSFEQVGTKVNVTVEDERTLVRRNNTFLSLRDVFGKDLIYTLYYWKSSSSGKKTAKTNTNEFLIDVDKGENYCFSVQAVIPSRTVNRKSTDSPVECMGQEKGEFRE light chain-HPC4: SIVMTQTPKFLLVSAGDRVTITCKASQSVSNDVAWYQQKPGQSPKLLINYASSRYTGIPDRFTGSGYGTDFTFTISTVQAEDLAVYFCQQDYSSPYTFGGGTKLEIERTVAAPSVFIFPPSDEQLKSGTASVVCLLNNFYPREAKVQWKVDNALQSGNSQESVTEQDSKDSTYSLSSTLTLSKADYEKHKVYACEVTHQGLSSPVTKSFNRGECEDQVDPRLIDGK |
